This test has as its target T1, Full-length recombinant FVIII (Kogenate FS) (Homo sapiens, UniProt P00451).
T1 construct: coagulation factor VIII, human, full-length recombinant (Kogenate FS); also called coagulation factor VIII; source: provided by Bayer Healthcare (Kogenate FS), reconstituted and dialyzed into Borate Buffer
The test is described as follows: ELISA; FVIII (6.6 nM in PBS) coated; Bo2C11 serially diluted 1:3 from 60 nM; detected by anti-human IgG. Conditions: both partners purified. For orientation: An ELISA detects its analyte on a solid surface through an enzyme-linked reagent.

The values that follow come from paper PMC3634029 (PLoS ONE, 2013).

What is called EC50 is the concentration that produces a half-maximal response.

T1 sequence (P00451 20-2351): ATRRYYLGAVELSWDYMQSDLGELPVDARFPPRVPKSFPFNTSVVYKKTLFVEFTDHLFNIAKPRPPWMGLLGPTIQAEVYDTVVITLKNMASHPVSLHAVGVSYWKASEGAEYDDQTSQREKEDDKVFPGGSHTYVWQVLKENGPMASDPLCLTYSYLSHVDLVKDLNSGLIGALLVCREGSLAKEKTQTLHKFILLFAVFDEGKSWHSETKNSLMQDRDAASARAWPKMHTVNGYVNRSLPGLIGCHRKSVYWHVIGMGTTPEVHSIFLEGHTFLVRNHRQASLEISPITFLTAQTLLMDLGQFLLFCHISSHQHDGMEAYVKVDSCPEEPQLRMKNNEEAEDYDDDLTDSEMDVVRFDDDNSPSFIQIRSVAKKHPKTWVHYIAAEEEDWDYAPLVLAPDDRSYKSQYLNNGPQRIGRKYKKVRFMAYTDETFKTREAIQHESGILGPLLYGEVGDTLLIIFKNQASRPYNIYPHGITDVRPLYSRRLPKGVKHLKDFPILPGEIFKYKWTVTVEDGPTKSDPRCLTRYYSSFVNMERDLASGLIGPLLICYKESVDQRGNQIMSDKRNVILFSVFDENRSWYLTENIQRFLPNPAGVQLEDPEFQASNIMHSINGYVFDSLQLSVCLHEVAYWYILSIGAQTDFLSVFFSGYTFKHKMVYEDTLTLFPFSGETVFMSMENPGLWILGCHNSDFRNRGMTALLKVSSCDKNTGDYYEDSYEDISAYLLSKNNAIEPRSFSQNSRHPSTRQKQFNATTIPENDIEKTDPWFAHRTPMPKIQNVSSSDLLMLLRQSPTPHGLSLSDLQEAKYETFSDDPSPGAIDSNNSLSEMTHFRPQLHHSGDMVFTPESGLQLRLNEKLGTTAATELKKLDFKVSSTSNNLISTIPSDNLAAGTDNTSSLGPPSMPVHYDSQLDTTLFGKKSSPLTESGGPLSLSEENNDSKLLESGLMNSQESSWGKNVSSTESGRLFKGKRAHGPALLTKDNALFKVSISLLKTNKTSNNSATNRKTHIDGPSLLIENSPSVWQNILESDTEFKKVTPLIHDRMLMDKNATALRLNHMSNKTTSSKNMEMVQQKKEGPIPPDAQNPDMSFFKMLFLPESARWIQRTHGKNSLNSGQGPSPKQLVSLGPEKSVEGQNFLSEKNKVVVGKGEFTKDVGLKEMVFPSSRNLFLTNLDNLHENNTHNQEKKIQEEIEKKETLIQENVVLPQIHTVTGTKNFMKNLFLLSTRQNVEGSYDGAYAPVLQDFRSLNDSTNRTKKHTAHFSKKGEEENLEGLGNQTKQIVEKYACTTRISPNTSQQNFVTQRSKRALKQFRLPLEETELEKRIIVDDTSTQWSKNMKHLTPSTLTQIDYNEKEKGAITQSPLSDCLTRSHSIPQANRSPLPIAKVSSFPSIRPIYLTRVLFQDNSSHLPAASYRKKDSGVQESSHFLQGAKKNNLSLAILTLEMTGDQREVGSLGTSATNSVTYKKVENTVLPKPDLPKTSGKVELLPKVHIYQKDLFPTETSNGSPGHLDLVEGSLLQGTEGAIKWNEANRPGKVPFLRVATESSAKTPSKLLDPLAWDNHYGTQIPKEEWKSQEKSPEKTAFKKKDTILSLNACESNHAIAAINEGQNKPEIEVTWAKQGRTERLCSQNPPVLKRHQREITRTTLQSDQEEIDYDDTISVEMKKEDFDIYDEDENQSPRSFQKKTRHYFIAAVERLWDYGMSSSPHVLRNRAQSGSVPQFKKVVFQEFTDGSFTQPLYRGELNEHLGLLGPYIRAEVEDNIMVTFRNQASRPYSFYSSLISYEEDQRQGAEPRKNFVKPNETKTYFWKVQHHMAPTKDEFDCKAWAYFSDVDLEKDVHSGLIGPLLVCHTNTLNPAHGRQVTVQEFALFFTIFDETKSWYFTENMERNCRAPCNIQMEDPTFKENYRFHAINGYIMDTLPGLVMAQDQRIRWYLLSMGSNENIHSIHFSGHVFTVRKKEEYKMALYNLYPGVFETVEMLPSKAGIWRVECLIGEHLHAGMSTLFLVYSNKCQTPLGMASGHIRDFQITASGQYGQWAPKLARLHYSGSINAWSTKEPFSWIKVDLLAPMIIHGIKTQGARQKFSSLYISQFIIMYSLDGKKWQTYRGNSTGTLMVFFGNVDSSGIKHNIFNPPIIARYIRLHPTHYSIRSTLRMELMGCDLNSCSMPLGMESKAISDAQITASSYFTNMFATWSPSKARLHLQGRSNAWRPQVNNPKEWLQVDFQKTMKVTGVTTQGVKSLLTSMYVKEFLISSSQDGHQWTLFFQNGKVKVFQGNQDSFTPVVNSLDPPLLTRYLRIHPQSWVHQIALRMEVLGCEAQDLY

B1: human monoclonal anti-FVIII antibody Bo2C11 (antibody, V domains shown)
VH: QVQLVQSGAEVKKPGASVKVSCKVSGYTLTELPVHWVGQAPGKGLEWVGSFDPESGESIYAREFQGSVTMTADTSTDIAYMELSSLRSDDTAVYYCAVPDPDAFDIWGQGTMVTVSS
VL: EIALTQSPGTLSLSPGERATLSCRASQSFSSSYLAWYQQKPGQAPRLLIYGASTRATGIPDRFSGSGSGTDFTLTISRLEPEDFAVYYCQKYGTSAITFGQGTRLEIK
B1: the EC50 is 2.66 nM.
